The source of these data is patent publication US20110021757A1 (NATIONAL INSTITUTE OF AGROBIOLOGICAL SCIENCES, published 2011).

For this experiment, the target named is T1, human transferrin (human, UniProt P02787 20-698).
T1 construct: The assay paragraphs say only 'transferrin (Biogenesis)'; also called transferrin (Biogenesis); antigen
Kind of experiment: ELISA, transferrin-coated plate, silk gland extract, anti-mouse Ig-HRP detection. How it is done:
Measurement of the activity of a recombinant antibody against an antigen by enzyme-linked immunosorbent assay (ELISA) was carried out by the following procedure. […] This was homogenized using a glass homogenizer and centrifuged at 14,000 rpm for 20 minutes, and then the supernatant was diluted five times (40 mg/ml) and ten times ([…]) in Tris buffer. These samples and the undiluted sample (original concentration: 200 mg/ml) were used as samples for ELISA measurement. Furthermore, similar procedures were used to prepare samples of the Ser1GAL4 strain silkworms for ELISA measurement as a negative control. 100 μl of the samples for ELISA measurement thus prepared were dispensed into a microtiter plate (NUNC) presensitized with 100 μg/well of transferrin (Biogenesis), and the plate was shaken at room temperature for two hours. Next, the ELISA measurement samples were removed from the wells, and the wells were washed three times with 200 μl of PBS-T. Into each well, 100 μl of a solution prepared in advance by diluting a rabbit anti-mouse Ig-HRP-labeled antibody 100-fold with PBS (150 mM NaCl, 10 mM phosphate buffer, pH 7.4) was dispensed, and the plate was shaken at room temperature for six hours. […] After that, the absorbance at 450 nm was measured using a model 550 microplate reader (BioRad).

T1 sequence (P02787 20-698 limits assumed): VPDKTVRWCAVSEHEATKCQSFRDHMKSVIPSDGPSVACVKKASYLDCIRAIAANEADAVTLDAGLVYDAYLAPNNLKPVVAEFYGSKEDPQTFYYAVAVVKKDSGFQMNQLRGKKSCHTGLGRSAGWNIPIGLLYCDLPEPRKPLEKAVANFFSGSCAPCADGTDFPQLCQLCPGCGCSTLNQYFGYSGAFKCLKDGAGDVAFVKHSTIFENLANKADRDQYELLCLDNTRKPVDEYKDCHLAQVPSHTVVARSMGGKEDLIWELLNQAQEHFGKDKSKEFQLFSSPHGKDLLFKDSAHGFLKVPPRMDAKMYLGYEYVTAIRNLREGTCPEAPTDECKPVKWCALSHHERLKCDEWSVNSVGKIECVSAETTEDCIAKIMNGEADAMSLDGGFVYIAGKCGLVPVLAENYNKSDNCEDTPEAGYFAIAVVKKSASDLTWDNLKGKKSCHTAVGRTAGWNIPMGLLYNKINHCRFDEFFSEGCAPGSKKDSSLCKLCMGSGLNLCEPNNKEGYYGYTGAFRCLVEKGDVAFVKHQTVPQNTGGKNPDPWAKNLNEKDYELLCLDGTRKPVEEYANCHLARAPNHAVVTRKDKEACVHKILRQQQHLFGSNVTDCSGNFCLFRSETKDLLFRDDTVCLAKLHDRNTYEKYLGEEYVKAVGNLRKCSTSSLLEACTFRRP

B1: scFv antibody from a mouse anti-human transferrin antibody (anti-transferrin scFv antibody) (scFv)
scFv: LEVQLQESGPDLVKPSQSLSLTCTVTGYSITSGYSWHWIRQFPENKLEWLGYIHSSGATNYSPSLKSRFSITRDTSKNQFFLQLNSVTTEDTATYYCARDGYSPPYAMDYWGQGTTVTVSSGGGGSGGGGSGGGGSDIELTQSPSSLAVSVGEKVTMTCKSSQSLLYSTNQKNYLAWYQQKPGQSPKLLIYWASTRESGVPDRFTGSGSGTDFTLTISSVKAEDLSVYYCQQYYSYPPTFGSGTKLEIK
notes: The signal piece is left out here as a secretion signal; Tested as a crude middle silk gland extract of Ser1GAL4/UASFvaTf silkworms, not purified; also called aTf; FvaTf
Regarding B1, the binding result was “binds”.
